Measurements taken from US12371675B2, “Process and microorganism for synthesis of adipic acid from carboxylic acids” (THE GOVERNING COUNCIL OF THE UNIVERSITY OF TORONTO, priority 2015, dated 2025).

B1: PP4421: aminotransferase (AT) from Pseudomonas putida (protein)
chain: MDKQKQDLISQQDRGAVLHPFTQLKDFASGKAGDPTIIETAKGITITDATGREYIDGFAGLYCMNVGYGRTEVAEAISKQAHKLAYYHTYAAHTTEELARLSDRLVKMAPGKMSKVFYGMSGSDANETQAKLVWYYNNLRGKPNKKKIIARERGYHGCSVVSGSMTGMSFYHDHMDLPIAGILRTGAPHYYWGAEPGETELEFSARRARELEELILREGPDTIGAFIAEPVLGTGGITPPPEGYWAAVQPVLKKYDILLIADEVITGFGRTGAMFGCDKYGIEPDLITVAKGLTSAYAPLSASIVGEKVYKVMEEGADRVGAFSHGYTYSGHPIGVAAANAVLDIVEGENIPAHVDKVGQYFQKSMQETFSSLPIVGEVRGVGMMAAIEFVADPATKKRFDPALKVGARISKAARDRNLIARAMPHGEILGFAPPLVTTEQEVDRIISIAHEAVLSVLDELKV
B2: SM2011_b20423: aminotransferase (AT) from Sinorhizobium meliloti (protein)
chain: MLERSNELTAWDRDHFFHPSTHMGMHARGETPTRVIGGGEGVYITDISGKRSLDAFAGLYCVNVGYGRQKIADAIAEQAKNLAYYHAYVGHGTEASIRLSKMIIDRAPEGMSRVYFGLSGSDANETNIKLIWYYNNILGRPEKKKIISRWRGYHGSGVMTGSLTGLHLFHNAFDLPRAPILHTEAPYYFRRPDRSMSEEQFSQYCADKLEEMILAEGPDTVAAFIGEPILGTGGIVPPPKGYWEKIQAVLQKYDILLVADEVVTGFGRLGTMFGSDHYGIKPDLITIAKGLTSAYAPLSGTIVSDKLWQVLVKGSDELGAIGHGWTYSAHPICAAAGIANLELIDELGIVENAGSTGAYFRAELQKAVGDHRHVGEVRGDGLMAAIEFVEDRDDRAFFDPGRKVGPQVAAALLERGVIGRAMPQGDILGFAPPLCLTRDEADIVVKAAADTIQSVLGR
B3: SCO5676: aminotransferase (AT) from Streptomyces coelicolor (protein)
chain: MTALPQERRVVTAIPGPKSQELQARRTAVVAQGVGSTLPVFVARAGGGVIEDVDGNRLIDFGSGIAVTSVGASAEAVVRKASAQLADFTHTCFMVTPYEGYVAVAEALAELTPGDHAKKSALFNSGAEAVENAVKIARAYTKRQAVVVFDHGYHGRTNLTMALTAKNMPYKHGFGPFAPEVYRVPVAYGYRWPTGAENAGPEAAAQAIDQISKQVGAENVAAVIIEPVLGEGGFIEPAKGFLPAIREFASDNGIVFVADEIQSGFCRTGQWFACEDEGIVPDLITTAKGIAGGLPLSAVTGRAEIMDAAHSGGLGGTYGGNPVACAGALGAIETMKELDLNARAKDIEAVMKSRLAAMAEKFDVIGDVRGRGAMIAIELVKDRETKEPNPAATAALAKACHQEGLLVLTCGTYGNVLRFLPPLVIGEDLLNEGLDIIEQAFTRV
B4: SM2011_c01534: aminotransferase (AT) from Sinorhizobium meliloti (protein)
chain: MSNRLNTTPNDLSAFWMPFTANRQFKKEPRLFVGAKDMYYTTHDGRTVLDGTAGLWCVNAGHCRPKITEAIREQAGELDYAPAFQLGHPKAFELANRLVDIAPEGMNHVLYTNSGSESVDTALKVALAYHRAKGNGSRFRLIGRERGYHGVNFGGISVGGIVANRKMFGTLLTGVDHLPHTHLPAKNAFSRGEPEHGADLAAELERIVTLHDASTVAAVIVEPVAGSTGVLIPPKGYLQKLREICTKHGILLIFDEVITGYGRLGTPFAAQYFDVKPDIITTAKGLTNGVIPMGAVFVTSEIHDAFMTGPEHLIEFFHGYTYSGNPIASAAALGTLDTYREEGLLTRAAELAPYWEEALHSLKDCPHVIDIRNIGLIGAVELEPIAGEPTKRAFSAFLKAYEKGLLIRTTGDIIALSPPLIIEKRQIDELFDKLRDVLKNNI
B5: Spo3471: aminotransferase (AT) from Ruegeria pomeroyi (protein)
chain: MATITNHMPTAELQALDAAHHLHPFSANNALGEEGTRVITRARGVWLNDSEGEEILDAMAGLWCVNIGYGRDELAEVAARQMRELPYYNTFFKTTHVPAIALAQKLAELAPGDLNHVFFAGGGSEANDTNIRMVRTYWQNKGQPEKTVIISRKNAYHGSTVASSALGGMAGMHAQSGLIPDVHHINQPNWWAEGGDMDPEEFGLARARELEEAILELGENRVAAFIAEPVQGAGGVIVAPDSYWPEIQRICDKYDILLIADEVICGFGRTGNWFGTQTMGIRPHIMTIAKGLSSGYAPIGGSIVCDEVAHVIGKDEFNHGYTYSGHPVAAAVALENLRILEEENILDHVRNVAAPYLKEKWEALTDHPLVGEAKIVGMMASIALTPNKASRAKFASEPGTIGYICRERCFANNLIMRHVGDRMIISPPLVITPAEIDEMFVRIRKSLDEAQAEIEKQGLMKSAA
B6: SAV2583: aminotransferase (AT) from Streptomyces avermitilis (protein)
chain: MSALPQERRVVTAIPGPKSQELQARRTAVVAAGVGSVLPVFTTRAGGGIIEDVDGNRLIDFGSGIAVTSVGASAEAVVRRASAQLQDFTHTCFMVTPYEGYVAVAEALAELTPGDHAKKSALFNSGAEAVENAVKIARAYTKRQAVVVFDHGYHGRTNLTMALTAKNMPYKNGFGPFAPEVYRVPVAYGYRWLTGPENAGAEASAQAIDMINKQIGADNVAAIIIEPVLGEGGFIEPAKGFLPAISKFAKDNGIVFVADEIQSGFCRTGQWFACEDEGIVPDLITTAKGIAGGLPLAAVTGRAEIMDAAHAGGLGGTYGGNPVACAGALGAIETMKELDLNAKAKNIEAVMKARLGAMAEKFDIIGDVRGRGGMIAIELVKDRDTKEPNPEAAGALAKACHQEGLLVLTCGTYGNVLRFLPPLVIGEDLLNEGLDIIEQAFSRI
B7: SM2011_b21186: aminotransferase (AT) from Sinorhizobium meliloti (protein)
chain: MTSLTDRKNAAISRGVGMTTQVYADRAENAEIWDKEGNRYIDFAAGIAVVNTGHRHPKVIAAVKAQLDRFTHTCHQVVPYENYVHLAERLNAIVPGDFAKKTIFVTTGAEAVENAVKIARAATGRQAVVAFGGGFHGRTFMGMALTGKVVPYKVGFGAMPADVFHAPFPIELHGVTVEQSLSALKKLFAADVDPARVAAIIIEPVQGEGGFYPVPTAFMKALREVCDQHGILLIADEVQTGFARTGKLFAMEHHGVAPDLTTMAKSLAGGFPLAAVTGRAEIMDAPGPGGLGGTYGGNPLGIAAAHAVLDVIAEENLCERANQLGNRLKQRLAAIREKAPEIVDIRGPGFMNAVEFNDVRTNLPSAEFANKVRLLALEKGLILLTCGVHGNVIRFLAPITIQDEVFAEALDTIEASILEARG
B8: SM2011_c04388: aminotransferase (AT) from Sinorhizobium meliloti (protein)
chain: MNAHNKPNAPVLDSYWMPFTANRQFKAAPRLLAAAEGMHYTSVDGRTVLDGTAGLWCVNAGHGRRQIAAAVERQLSTMDFAPSFQMGHPIAFDFAERLAEIAPGPAGAKLDRVFFTGSGSESVDTALKMALAYQRSIGQGTRTRLIGRERGYHGVGFGGISVGGIVNNRRVFPQLPGSDHLRHTHDPAKNAFVKGQPEHGAELADDLERLVALHGAETIAACIVEPVAGSTGVLIPPKGYLERLRAICDKHGILLIFDEVITGFGRLGAAFATDYFGVTPDIVTTAKGLTNGAIPMGAVFASRKVHDALMHGPEGQIELFHGYTYSGHPAACAAGIATLDIYRDEGLMTRAAEIEGDWHEAMHSMKGLPHVIDIRTIGLIAGIELQSRDGAPGARAYDVFVDCFERGLLIRVTGDIIAFSPPLIAEKQHFGEIVSILADALKRVK
B9: SM2011_b20379: aminotransferase (AT) from Sinorhizobium meliloti (protein)
chain: MNDRPNSLHALDKQSLVHPYTNLAVHQETGPHVITGGDGIYVVDDEGKRYIEGLAGLFCAGLGFSEQRLVEAATRQLKTMPFYHSFAHKSTEPGIRLAEKLLSIAPVPMSKVFFAGSGSEANDTAIKLIWYYNNALGRPEKKKIISRRKAYHGVTVATASLTGLPFNHRDFDLPIANILHTDCPHYWRFAETGETEEDFATRMANNLEAIILEEGPETIAAFFAEPVMVSGGVITPPKTYFEKVQAVLRKYDILLIADEVICGFGRTGNMFGSETYGLKPDMISCAKQLSAAYMPISALMINAKIADALVDQSRKIGTFSHGFTYGGHPVAAAVALEALTIYEEIDIVGHVRSVAPAFQDRVRKLGEHPLIGEARGVGLVAGLEFVKDKATRENFPPAWQVANQAGKFATARGVLTRGLGDMVSLCPAMIIDDEQIDDLMTRMGLALDDTLAWARAQGHVG
B10: Atu2528: aldehyde reductase (AR) from Agrobacterium fabrum (protein)
chain: MQPFVYMAAPARIVFSAGSSADVAEEIRRLGLSRALVLSTPQQKGDAEALASRLGRLAAGVFSEAAMHTPVEVTKTAVEAYRAAGADCVVSLGGGSTTGLGKAIALRTDAAQIVIPTTYAGSEVTPILGQTENGVKTTMRGPEILPEVVIYDAELTLGLPVAISMTSGLNAMAHAAEALYARDRNPIASMMAVEGLRAMIEALPVVRQAPHDIGARETALYGAWLCGTVLGAVGMSLHHKLCHTLGGSLDLPHAETHAVLLPHTIAYVEEAAPNLLAPLAALVGGRAGAGLFDFAARLGAPSSLAALGVGADDLDPMAELATANPYWCPRPIEKTAIRDLLQRAFEGARPA

Assays:
[1] = AT activity coupled with alanine and glutamate dehydrogenases; format: biochemical; conditions: 10 mM adipaldehyde, alanine and glutamate amino-donors; ND = no activity was detected
[2] = AR reductase activity, NAD(P)H oxidation at 340 nm; format: biochemical; conditions: 10 mM; ND = no activity was detected
Description: Enzyme activity of purified ARs was measured spectrophotometrically in 96-well plates Reaction mixtures contained 100 mM HEPES buffer (pH 7.5), 0.4 mM NADH/NADPH, 10 mM adipaldehyde or butylaldehyde, and proteins (10 μg for adipaldehyde screen, 2 μg for butyraldehyde screen) in a final volume of 200 μL Reaction mixture for adipaldehyde screening contained 1.8% DMSO. Enzyme reactions were monitored by following the decrease in absorbance at 340 nm (ε340 nm=6,220/M·cm) due to oxidation of NAD(P)H to NAD(P)+.

| Molecule | Adipaldehyde 10 mM U/mg [1] [U/mg] | Activity [U/mg protein] Butyraldehyde [2] [U/mg protein] |
| --- | --- | --- |
| B1 | 0.061 ± 0.001 |  |
| B2 | 0.162 ± 0.002 |  |
| B3 | 0.084 ± 0.015 |  |
| B4 | 0.021 ± 0.003 |  |
| B5 | 0.021 ± 0.001 |  |
| B6 | 0.136 ± 0.011 |  |
| B7 | 0.051 ± 0.014 |  |
| B8 | 0.152 ± 0.001 |  |
| B9 | 0.106 ± 0.008 |  |
| B10 |  | 0.110 ± 0.089 |
